Reference: US20130078247A1
Read-outs that look alike come from different tables or passages of the source. Values belong to the substance of their own block, whether it stands above or below them.

How the values were obtained:
[1] = target: mouse DLL4, full length, overexpressed on CHO or HEK293 cells (mouse) (UniProt Q9JI71); assay: competition FMAT: labelled hNotch1/Fc binding to CHO-mDLL4 cells
[2] = target: recombinant human DLL4 extracellular domain, C-terminally His-tagged (R&D Systems) (human) (UniProt Q9NR61); assay: competition ELISA: 8 nM biotinylated hDLL4 binding to coated hNotch1/Fc
[3] = target: mouse DLL4, full length, overexpressed on CHO or HEK293 cells (mouse) (UniProt Q9JI71); assay: competition FMAT: labelled hNotch1-Fc on CHO-mDLL4 cells
[4] = target: mouse DLL4, full length, overexpressed on CHO or HEK293 cells (mouse) (UniProt Q9JI71); assay: competition FMAT: labelled hNotch1/Fc binding to CHO-mDLL4 cells; panel '+ HSA', HSA not marked for this curve [continued]
[5] = target: recombinant mouse DLL4 extracellular domain, C-terminally His-tagged (R&D Systems) (mouse) (UniProt Q9JI71); assay: binding ELISA on coated rmDLL4
[6] = target: recombinant human DLL4 extracellular domain, C-terminally His-tagged (R&D Systems) (human) (UniProt Q9NR61); assay: hDLL4/hNotch1-Fc competition ELISA
[7] = target: mouse DLL4, full length, overexpressed on CHO or HEK293 cells (mouse) (UniProt Q9JI71); assay: competition FMAT: labelled hNotch1-Fc on CHO-mDLL4 cells, with 25 uM HSA [continued]
[8] = target: recombinant human DLL4 extracellular domain, C-terminally His-tagged (R&D Systems) (human) (UniProt Q9NR61); assay: competition ELISA: 8 nM biotinylated hDLL4 + binder, residual binding to coated hNotch1-Fc
[9] = target: mouse DLL4, full length, overexpressed on CHO or HEK293 cells (mouse) (UniProt Q9JI71); assay: competition FMAT: labelled hNotch1-Fc on CHO-mDLL4 cells, with 25 uM HSA [continued]; remark: listed apart in the source
[10] = target: mouse DLL4, full length, overexpressed on CHO or HEK293 cells (mouse) (UniProt Q9JI71); assay: competition FMAT: labelled hNotch1-Fc on CHO-mDLL4 cells; remark: listed apart in the source
[11] = target: recombinant human DLL4 extracellular domain, C-terminally His-tagged (R&D Systems) (human) (UniProt Q9NR61); assay: binding ELISA on coated rhDLL4
[12] = target: human DLL4, full length, overexpressed on CHO or HEK293 cells (human) (UniProt Q9NR61); assay: competition FMAT: labelled hNotch1/Fc binding to CHO-hDLL4 cells; panel '+ HSA', HSA not marked for this curve [continued]
[13] = target: recombinant human DLL4 extracellular domain, C-terminally His-tagged (R&D Systems) (human) (UniProt Q9NR61); assay: hDLL4/hNotch1 competition AlphaScreen
[14] = target: human DLL4, full length, overexpressed on CHO or HEK293 cells (human) (UniProt Q9NR61); assay: competition FMAT: labelled hNotch1/Fc binding to CHO-hDLL4 cells
[15] = target: human DLL4, full length, overexpressed on CHO or HEK293 cells (human) (UniProt Q9NR61); assay: competition FMAT: labelled hNotch1-Fc on CHO-hDLL4 cells, with 25 uM HSA [continued]
[16] = target: mouse DLL4, full length, overexpressed on CHO or HEK293 cells (mouse) (UniProt Q9JI71); assay: FMAT, Notch1/Fc on CHO-mDLL4
[17] = target: human DLL4, full length, overexpressed on CHO or HEK293 cells (human) (UniProt Q9NR61); assay: FMAT, Notch1/Fc on CHO-hDLL4
[18] = target: human DLL4, full length, overexpressed on CHO or HEK293 cells (human) (UniProt Q9NR61); assay: cell-based or functional assay
[19] = target: human DLL4, full length, overexpressed on CHO or HEK293 cells (human) (UniProt Q9NR61); assay: competition FMAT: labelled hNotch1-Fc on CHO-hDLL4 cells
[20] = target: human DLL4, full length, overexpressed on CHO or HEK293 cells (human) (UniProt Q9NR61); assay: as above; remark: listed apart in the source
[21] = target: mouse DLL4, full length, overexpressed on CHO or HEK293 cells (mouse) (UniProt Q9JI71); assay: competition FMAT: labelled hNotch1/Fc binding to CHO-mDLL4 cells; panel '+ HSA', HSA not marked for this curve [continued]; remark: listed apart in the source
[22] = target: recombinant human DLL4 extracellular domain, C-terminally His-tagged (R&D Systems) (human) (UniProt Q9NR61); assay: competition ELISA: 8 nM biotinylated hDLL4 + binder, residual binding to coated hNotch1-Fc; remark: listed apart in the source
[23] = target: human DLL4, full length, overexpressed on CHO or HEK293 cells (human) (UniProt Q9NR61); assay: competition FMAT: labelled hNotch1-Fc on CHO-hDLL4 cells, with 25 uM HSA [continued]; remark: listed apart in the source
[24] = target: mouse DLL4, full length, overexpressed on CHO or HEK293 cells (mouse) (UniProt Q9JI71); assay: competition FMAT: labelled hNotch1/Fc binding to CHO-mDLL4 cells; remark: listed apart in the source
[25] = target: human Ang2 (human) (UniProt O15123); assay: competition ELISA hAng2/hTie2-Fc
[26] = target: human Ang2 (human) (UniProt O15123); assay: competition ELISA hAng2/hTie2-Fc; remark: listed apart in the source
[27] = target: mouse Ang2 (mouse) (UniProt O35608); assay: competition ELISA: mAng2 binding to mTie2
[28] = target: human Ang2 (human) (UniProt O15123); assay: competition ELISA hAng2/hTie2-Fc, with 0.5 uM HSA [continued]
[29] = target: human Ang2 (human) (UniProt O15123); assay: as above; remark: listed apart in the source
[30] = target: mouse Ang2 (mouse) (UniProt O35608); assay: competition ELISA: mAng2 binding to mTie2; remark: listed apart in the source
[31] = target: human Ang2 (human) (UniProt O15123); assay: competition ELISA: hAng2 binding to hTie2
[32] = target: mouse Ang2 (mouse) (UniProt O35608); assay: competition ELISA: mAng2 binding to mTie2; remark: listed apart in the source
[33] = target: mouse Ang2 (mouse) (UniProt O35608); assay: competition ELISA: mAng2 binding to mTie2; remark: listed apart in the source

Chain of mouse DLL4, full length, overexpressed on CHO or HEK293 cells (mouse) (Q9JI71 27-686): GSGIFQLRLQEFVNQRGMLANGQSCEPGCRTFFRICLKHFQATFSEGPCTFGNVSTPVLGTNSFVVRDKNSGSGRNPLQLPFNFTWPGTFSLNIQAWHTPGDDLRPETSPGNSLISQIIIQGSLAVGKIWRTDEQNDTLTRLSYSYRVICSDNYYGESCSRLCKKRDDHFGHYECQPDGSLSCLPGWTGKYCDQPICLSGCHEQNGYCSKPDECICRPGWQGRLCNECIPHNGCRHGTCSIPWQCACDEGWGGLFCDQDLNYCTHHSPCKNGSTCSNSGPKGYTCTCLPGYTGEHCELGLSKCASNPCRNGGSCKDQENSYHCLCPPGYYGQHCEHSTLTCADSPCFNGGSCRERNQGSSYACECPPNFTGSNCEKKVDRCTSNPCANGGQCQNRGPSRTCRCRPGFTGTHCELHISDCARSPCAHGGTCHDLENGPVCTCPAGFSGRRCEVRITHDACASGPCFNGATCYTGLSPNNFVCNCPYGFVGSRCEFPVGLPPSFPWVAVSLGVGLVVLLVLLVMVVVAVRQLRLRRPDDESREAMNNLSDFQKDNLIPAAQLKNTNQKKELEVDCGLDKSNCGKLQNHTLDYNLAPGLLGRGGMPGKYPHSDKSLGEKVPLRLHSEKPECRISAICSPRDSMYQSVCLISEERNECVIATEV
Chain of mouse Ang2 (mouse) (O35608 19-496 limits assumed): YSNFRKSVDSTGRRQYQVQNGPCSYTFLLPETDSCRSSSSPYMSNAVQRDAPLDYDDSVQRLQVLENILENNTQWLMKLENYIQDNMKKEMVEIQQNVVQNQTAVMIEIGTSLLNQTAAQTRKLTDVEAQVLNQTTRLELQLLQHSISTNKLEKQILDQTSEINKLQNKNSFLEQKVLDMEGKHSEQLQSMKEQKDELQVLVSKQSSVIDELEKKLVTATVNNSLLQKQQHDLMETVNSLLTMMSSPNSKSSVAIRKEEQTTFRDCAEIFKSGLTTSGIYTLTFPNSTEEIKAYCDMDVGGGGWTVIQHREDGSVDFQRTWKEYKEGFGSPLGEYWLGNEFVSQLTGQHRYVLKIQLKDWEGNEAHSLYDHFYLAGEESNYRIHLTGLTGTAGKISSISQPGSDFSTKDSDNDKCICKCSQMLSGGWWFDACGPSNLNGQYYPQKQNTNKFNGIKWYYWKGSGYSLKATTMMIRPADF
Chain of human Ang2 (human) (O15123 19-496 limits assumed): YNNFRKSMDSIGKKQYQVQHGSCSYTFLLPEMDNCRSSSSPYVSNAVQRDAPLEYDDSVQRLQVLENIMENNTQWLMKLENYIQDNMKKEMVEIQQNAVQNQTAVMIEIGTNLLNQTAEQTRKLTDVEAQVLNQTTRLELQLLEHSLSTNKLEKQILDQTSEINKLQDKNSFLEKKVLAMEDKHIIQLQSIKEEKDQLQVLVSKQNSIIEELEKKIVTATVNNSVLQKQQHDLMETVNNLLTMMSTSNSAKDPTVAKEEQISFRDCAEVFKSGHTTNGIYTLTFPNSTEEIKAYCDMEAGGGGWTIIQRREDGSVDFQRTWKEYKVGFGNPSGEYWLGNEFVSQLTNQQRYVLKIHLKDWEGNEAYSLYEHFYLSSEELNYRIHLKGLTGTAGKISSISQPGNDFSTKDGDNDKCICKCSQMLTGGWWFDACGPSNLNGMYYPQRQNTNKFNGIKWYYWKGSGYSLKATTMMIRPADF
Chain of recombinant mouse DLL4 extracellular domain, C-terminally His-tagged (R&D Systems) (mouse) (Q9JI71 27-525 limits assumed): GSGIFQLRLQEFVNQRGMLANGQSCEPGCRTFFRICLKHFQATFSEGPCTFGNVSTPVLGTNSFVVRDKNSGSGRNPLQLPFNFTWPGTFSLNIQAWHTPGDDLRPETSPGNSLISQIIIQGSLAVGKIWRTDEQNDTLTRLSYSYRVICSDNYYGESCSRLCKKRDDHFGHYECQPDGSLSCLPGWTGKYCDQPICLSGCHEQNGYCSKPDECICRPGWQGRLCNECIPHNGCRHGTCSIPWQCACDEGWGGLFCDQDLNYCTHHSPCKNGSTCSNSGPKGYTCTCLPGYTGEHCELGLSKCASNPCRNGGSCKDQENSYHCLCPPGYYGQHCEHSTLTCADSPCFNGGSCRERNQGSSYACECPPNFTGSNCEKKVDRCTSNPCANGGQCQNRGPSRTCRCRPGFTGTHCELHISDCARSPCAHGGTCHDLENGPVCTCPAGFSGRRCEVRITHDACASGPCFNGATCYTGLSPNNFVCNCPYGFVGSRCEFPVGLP

IC50 (read off the curve) [1]: 3 nM
IC50 (read off the curve) [2]: 3 nM
IC50 (read off the curve) [3]: 2 nM
IC50 (read off the curve) [4]: 3 nM
EC50 (read off the curve) [5]: 0.9 nM
IC50 [6]: 0.7 nM
IC50 (read off the curve) [7]: 1 nM
IC50 (read off the curve) [8]: 5 nM
IC50 (read off the curve) [9]: 2 nM
IC50 (read off the curve) [10]: 1 nM
EC50 (read off the curve) [11]: 0.8 nM
IC50 (read off the curve) [12]: 3 nM
IC50 [13]: 0.3 nM
IC50 (read off the curve) [14]: 4 nM
IC50 (read off the curve) [15]: 7 nM
IC50 [16]: 2.3 nM
IC50 [17]: 5.4 nM
IC50, DLL4/Notch1 reporter assay (luciferase; co-culture with HEK293-hDII4) [18]: 133 nM
IC50 (read off the curve) [19]: 5 nM
IC50 (read off the curve) [20]: 7 nM
IC50 (read off the curve) [21]: 2 nM
IC50 (read off the curve) [22]: 4 nM
IC50 (read off the curve) [23]: 4 nM
IC50 (read off the curve) [24]: 2 nM
Substance: anti-DLL4 Fab fragment (Fab of the Genentech DII4 mAb of US 2008/0014196)

IC50 (read off the curve) [25]: 0.004 nM
IC50 (read off the curve) [26]: 0.005 nM
IC50 (read off the curve) [27]: 0.003 nM
IC50 (read off the curve) [28]: 0.004 nM
IC50 (read off the curve) [29]: 0.005 nM
IC50 (read off the curve) [30]: 0.009 nM
IC50 (read off the curve) [31]: 0.003 nM
IC50 (read off the curve) [32]: 0.004 nM
IC50 (read off the curve) [33]: 0.007 nM
Substance: AMG386
